This note sets out measurements from patent US20130273052A1.

Assay [1] concerns the target R38Q scFv (variant of the anti-C5 single chain antibody pexelizumab). The assay can be described thus: Biacore SPR self-association, R38Q scFv immobilised on CM5 chip, R38Q scFv 0.6-75 µM as analyte; poor fit to the Langmuir model. A general note: Surface plasmon resonance follows binding to a sensor surface in real time, without labels.
Assay [2] concerns the target human complement component C5 protein (human). As to the kind of experiment: cell-based or functional assay.
The target is the same in assay [3]. As to the kind of experiment: Biacore 3000 SPR, scFv immobilised on CM5 chip, C5 0.1875-24 nM as analyte, 25 C, 1:1 Langmuir model.

Broadly, the Kd is the equilibrium constant for the complex coming apart. A higher Kd goes with lower affinity. Usually koff stands for the first-order rate constant of dissociation. Lower therefore signals a long-lived complex. The kon is a measure of how fast the partners come together. As for “R38Q scFv (variant of the anti-C5 single chain antibody pexelizumab)”, in assay [1], the Kd worked out at 32 µM, the koff is 0.0107 s⁻¹ and the kon was determined as 334 M⁻¹ s⁻¹. The inhibition of chicken erythrocyte hemolysis in about 10% normal human serum (absorbance at 415 nm), IC50 in assay [2] was determined as 2 µg/mL. In assay [3], this substance showed a Kd of 0.000108 µM, a dissociation rate constant (koff) of 6.06e-05 s⁻¹ and a kon of 559000 M⁻¹ s⁻¹.
